B1: Flag-USP36 wild type [not stated] / Myc-PrimPol WT [not stated] (parent)
chain 1: MPIVDKLKEALKPGRKDSADDGELGKLLASSAKKVLLQKIEFEPASKSFSYQLEALKSKYVLLNPKTEGASRHKSGDDPPARRQGSEHTYESCGDGVPAPQKVLFPTERLSLRWERVFRVGAGLHNLGNTCFLNATIQCLTYTPPLANYLLSKEHARSCHQGSFCMLCVMQNHIVQAFANSGNAIKPVSFIRDLKKIARHFRFGNQEDAHEFLRYTIDAMQKACLNGCAKLDRQTQATTLVHQIFGGYLRSRVKCSVCKSVSDTYDPYLDVALEIRQAANIVRALELFVKADVLSGENAYMCAKCKKKVPASKRFTIHRTSNVLTLSLKRFANFSGGKITKDVGYPEFLNIRPYMSQNNGDPVMYGLYAVLVHSGYSCHAGHYYCYVKASNGQWYQMNDSLVHSSNVKVVLNQQAYVLFYLRIPGSKKSPEGLISRTGSSSLPGRPSVIPDHSKKNIGNGIISSPLTGKRQDSGTMKKPHTTEEIGVPISRNGSTLGLKSQNGCIPPKLPSGSPSPKLSQTPTHMPTILDDPGKKVKKPAPPQHFSPRTAQGLPGTSNSNSSRSGSQRQGSWDSRDVVLSTSPKLLATATANGHGLKGNDESAGLDRRGSSSSSPEHSASSDSTKAPQTPRSGAAHLCDSQETNCSTAGHSKTPPSGADSKTVKLKSPVLSNTTTEPASTMSPPPAKKLALSAKKASTLWRATGNDLRPPPPSPSSDLTHPMKTSHPVVASTWPVHRARAVSPAPQSSSRLQPPFSPHPTLLSSTPKPPGTSEPRSCSSISTALPQVNEDLVSLPHQLPEASEPPQSPSEKRKKTFVGEPQRLGSETRLPQHIREATAAPHGKRKRKKKKRPEDTAASALQEGQTQRQPGSPMYRREGQAQLPAVRRQEDGTQPQVNGQQVGCVTDGHHASSRKRRRKGAEGLGEEGGLHQDPLRHSCSPMGDGDPEAMEESPRKKKKKKRKQETQRAVEEDGHLKCPRSAKPQDAVVPESSSCAPSANGWCPGDRMGLSQAPPVSWNGERESDVVQELLKYSSDKAYGRKVLTWDGKMSAVSQDAIEDSRQARTETVVDDWDEEFDRGKEKKIKKFKREKRRNFNAFQKLQTRRNFWSVTHPAKAASLSYRR
chain 2: MNRKWEAKLKQIEERASHYERKPLSSVYRPRLSKPEEPPSIWRLFHRQAQAFNFVKSCKEDVHVFALECKVGDGQRIYLVTTYAEFWFYYKSRKNLLHCYEVIPENAVCKLYFDLEFNKPANPGADGKKMVALLIEYVCKALQELYGVNCSAEDVLNLDSSTDEKFSRHLIFQLHDVAFKDNIHVGNFLRKILQPALDLLGSEDDDSAPETTGHGFPHFSEAPARQGFSFNKMFTEKATEESWTSNSKKLERLGSAEQSSPDLSFLVVKNNMGEKHLFVDLGVYTRNRNFRLYKSSKIGKRVALEVTEDNKFFPIQSKDVSDEYQYFLSSLVSNVRFSDTLRILTCEPSQNKQKGVGYFNSIGTSVETIEGFQCSPYPEVDHFVLSLVNKDGIKGGIRRWNYFFPEELLVYDICKYRWCENIGRAHKSNNIMILVDLKNEVWYQKCHDPVCKAENFKSDCFPLPAEVCLLFLFKEEEEFTTDEADETRSNETQNPHKPSPSRLSTGASADAVWDNGIDDAYFLEATEDAELAEAAENSLLSYNSEVDEIPDELIIEVLQE

Variants of: B1
Experiment: co-immunoprecipitation (anti-Flag agarose beads), immunoblot band quantification
Details: with Myc-PrimPol WT; USP36 stably knocked-down HEK293T cells; HU (10 mM) for 8 h; parent: 1.6; read off a plot; scale: relative band intensity
chain 1 K329R K338R showed a response of 1.6.

Same assay, conditions: with Myc-PrimPol WT; USP36 stably knocked-down HEK293T cells; untreated (Ctrl); parent: 1; read off a plot; scale: relative band intensity
For chain 1 K329R K338R, the response was 1.6.
